# Results: publication PMC7979924, “Lin28, a major translation reprogramming factor, gains access to YB-1-packaged mRNA through its cold-shock domain”
# T1: Lin28-CSD (Homo sapiens, UniProt Q9H9Z2 32-136)
# T1 sequence: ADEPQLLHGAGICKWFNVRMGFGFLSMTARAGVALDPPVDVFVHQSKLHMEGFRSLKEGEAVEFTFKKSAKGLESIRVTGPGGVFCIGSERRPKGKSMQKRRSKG
# B1: poly(C) DNA C10 (ssDNA)
# DNA: CCCCCCCCCC
# Columns and labels:
# Lin28-CSD = molecular target: T1, Lin28-CSD; assay: NMR (1H-15N HSQC); 298 K; EMSA: 20 mM Tris pH 7.6, 40 mM NaCl, 0.5 mM DTT, room temperature, 30 min; NMR: 50 mM potassium phosphate pH 7.0, 50 uM 15N-protein, 298 K (C10) or 303 K (C20); settings: protein: recombinant; tags: His6
# YB-1-CSD = YB-1-CSD (Homo sapiens, UniProt P67809 1-180); assay: NMR (1H-15N HSQC); 298 K; spectra stated as already published (ref 7); EMSA: 20 mM Tris pH 7.6, 40 mM NaCl, 0.5 mM DTT, room temperature, 30 min; NMR: 50 mM potassium phosphate pH 7.0, 50 uM 15N-protein, 298 K (C10) or 303 K (C20); settings: protein: recombinant
# Sequence of YB-1-CSD (P67809 1-180): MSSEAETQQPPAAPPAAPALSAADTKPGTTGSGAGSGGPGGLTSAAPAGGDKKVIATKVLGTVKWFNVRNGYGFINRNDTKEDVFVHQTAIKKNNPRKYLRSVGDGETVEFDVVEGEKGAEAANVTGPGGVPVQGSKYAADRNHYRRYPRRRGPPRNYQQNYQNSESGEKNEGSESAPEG
binder,measurement,setting,value
B1,binding result,Lin28-CSD,binds
same,binding result,YB-1-CSD,binds
